Results reported in patent US20250195556A1, “COMPOSITIONS, KITS, AND METHODS TO INDUCE ACQUIRED CYTORESISTANCE USING STRESS PROTEIN INDUCERS” (FRED HUTCHINSON CANCER RESEARCH CENTER, priority 2014, published 2025).

Legend:
HO-1 [1] = experiment: Renal cortical HO-1 mRNA and protein after FeS, SnPP or B12; type: in vivo, mice; settings: for HO-1 protein increases (FIG. 21): within 4 hrs and persists for 18 hrs of IV injection
Excerpt: (§1) Methods. Male CD-1 mice (25-40 grams) Charles River, Wilmington, MA) were used for all experiments. They were housed under standard vivarium conditions with free food and water access. All experiments were approved by the Fred Hutchinson Cancer Research Center IACUC in accordance with NIH guidelines.
Effects of FeS, SnPP, and B12 on renal cortical induction of heme oxygenase 1 (HO-1). The following experiments assessed the effects of FeS, SnPP, and B12 on the possible induction of the cytoprotective protein HO-1. To this end, mice were injected with each of these agents, as noted above. Either 4 or 18 hrs later, they were anesthetized and the kidneys were removed through a midline abdominal incision. The renal cortices were dissected on ice and then extracted for protein and mRNA. The samples were then assayed for HO-1 protein by ELISA, and HO-1 mRNA by RT-PCR, factored by GAPDH levels. Five normal mice provided control values.

Male CD-1 mice [2] = experiment: Maleate model of AKI (FeS, SnPP, FeS+SnPP); type: in vivo; settings: 1 mg FeS or 1 μmole SnPP IV alone 18 hrs before maleate
Excerpt: as §1
Effects of Fe sucrose (FeS)/tin protoporphyrin (SnPP) on AKI severity. Maleate model of AKI. When injected into rodents, maleate undergoes relatively selective proximal tubule cell uptake via organic anion transporters. Once intracellular accumulation occurs, maleate is a preferred substrate for succinyl-CoA: 3-oxoacid CoA transferase. […] Ample levels of CoA are essential for fatty acid “activation”, allowing for their subsequent metabolism through the Krebs cycle, yielding ATP. In the absence of this process, proximal tubule ATP depletion and cell injury result. Additionally, maleate conjugates the sulfhydryl group of glutathione (GSH), culminating in GSH depletion and potential oxidant tubular stress.
The following experiment tested whether FeS, SnPP or combined FeS+SnPP can mitigate this form of acute kidney injury (AKI). […] The severity of kidney injury was assessed by determining plasma blood urea nitrogen (BUN) and plasma creatinine (PCr) concentrations.

HK-2 cells = experiment: Myoglobin toxicity in HK-2 cells, MTT assay; type: cell-based; settings: equimolar Na nitrite, 10 mg/ml, 18 hr
Description: Example 3. […] HK-2 cells (a proximal tubule cell line derived from normal human kidney) were incubated in keratinocyte serum free medium either under normal (control) conditions or in the presence of 10 mg/mL horse skeletal muscle myoglobin or nitrited myoglobin (produced by equimolar Na nitrite addition to 10 mg/ml myoglobin). After 18 hr incubations, the severity of cell injury (% cell death) was assessed by MTT assay. Myoglobin induced 40% cell death (40% decrease in MTT cell uptake), compared to control incubated cells. Nitrite binding to myoglobin reduced cell death by 75%. Thus, nitrite binding is able to reduce myoglobin's cytotoxic effects.

haptoglobin [3] = experiment: Cardiac haptoglobin mRNA and protein after IV N-Mgb, SnPP or both; type: in vivo, mice; settings: for Cardiac mRNA: Haptoglobin: control 0.31; for Cardiac protein: Haptoglobin: control 15.6
Description: (§2) Thirty-two mice were divided into 4 equal groups: (1) control mice; (2) mice treated with 1 mg of N-Mgb injection (as a bolus through the tail vein); (3) mice treated with […] of SnPP (via tail vein); and (4) mice treated with combined N-Mgb 1 SnPP. After either 4 hours (n=16) or 18 hours (n=16), the mice were deeply anesthetized with pentobarbital (50 mg/kg), the abdomen was opened through a midline abdominal incision, and the kidneys were removed. To determine potential effects on extrarenal organs, a liver lobe and the heart were also removed. The tissues were iced and then extracted for protein and RNA (RNeasy Plus Mini; Qiagen, Valencia, California) and subjected to enzyme linked immunosorbent assay (ELISA) and reverse transcriptase polymerase chain reaction (RT-PCR) for HO-1, haptoglobin, and IL-10 protein and messenger RNAs (mRNAs). Zager et al. J Am Soc Nephrol 2014; 25:998-1012; Zager et al. Am J Physiol 2012; 303: F139-48. As an assessment of renal function, control mice and the 18 hour after N-Mgb+SnPP-treated mice had blood urea nitrogen (BUN) and plasma creatinine levels measured. Additionally, transverse 10% formalin fixed kidney sections ([…]) were cut and stained with hematoxylin and eosin (H&E) and periodic acid Schiff (PAS) to further assess potential injury.

[4] = Serum creatinine after 2 hr subcutaneous infusion of nitrited myoglobin + SnPP; type: in vivo, mice; settings: 2 hr subcutaneous infusion of 1, 3, 6, 12, or 25 mg/Kg + 1 μmole SnPP; 18 hrs later
Description: Mice were subjected to a 2 hr subcutaneous infusion of 1, 3, 6, 12, or 25 mg/Kg of nitrited myoglobin (holding SnPP at a constant dose of 1 μmole). Eighteen hrs later, potential renal injury was assessed by measuring serum creatinine concentrations.
An obvious concern by applying this prophylactic strategy to patients is potential renal and/or extrarenal toxicities. […] Furthermore, it was previously documented in a cell culture system that nitrite addition markedly reduces myoglobin's cytotoxic effects by 75% (unpublished data, 2014). To assess the potential in vivo margin of safety for N-Mgb+SnPP (see Supplemental FIGs.), the maximal amount of N-Mgb that could be given to mice before nephrotoxicity was observed was tested. Up to 25 times the employed N-Mgb dose (with a constant SnPP dose) could be administered (over 2 hours) without induction of nephrotoxicity (normal BUN and creatinine, 18 hours later).

HO-1 [5] = experiment: Liver HO-1 mRNA and protein after IV N-Mgb, SnPP or both; type: in vivo, mice; settings: for Liver mRNA: HO-1: control 1.1; for Liver protein: HO-1 protein: control 10.2
Description: as §2

Male CD-1 mice [6] = experiment: Glycerol model of rhabdomyolysis-induced AKI (Example 4); type: in vivo; settings: IV pretreatment 18 hours before glycerol; 18 hours after glycerol
Description: Assessments of cytoresistance. Glycerol model of rhabdomyolysis-induced AKI. Twenty mice were divided into 4 equal groups (controls, mice treated with N-Mgb, SnPP, and mice treated with N-Mgb+SnPP tail vein injections) as described previously. 18 hours later, the mice were briefly anesthetized with isoflurane and immediately injected with 9 mL/kg of 50% glycerol, administered in equally divided doses into each hind limb. At 18 hours after glycerol injection, the mice were anesthetized with pentobarbital, the abdomen was opened, a blood sample for BUN and creatinine assessments was obtained from the vena cava, and the kidneys were resected. The control post-glycerol group and the N-Mgb+SnPP-pretreated glycerol group had kidney sections stained with H&E.
Calculations and statistics. All values are given as the mean […] standard error of the mean. Statistical comparisons were made by unpaired Student's t test. If multiple comparisons were made, the Bonferroni correction was applied. The severity of renal histologic injury in the glycerol AKI model was graded on a […] (least to most severe tubular necrosis and cast formation observed). The histologic results were compared by Wilcoxon rank sum test. Statistical significance was taken as a P value of <0.05.

HO-1 [7] = experiment: Renal cortical HO-1 mRNA and protein after IV N-Mgb, SnPP or both; type: in vivo, mice
Excerpt: (§3) Cytoresistance-inducing reagents. […] (#Mb0360; Sigma) was used as the primary cytoresistance-inducing agent. However, because myoglobin (Mgb) has an inherent nephrotoxic potential (particularly under conditions of volume depletion and aciduria), two approaches were used to mitigate Mgb's potential adverse effects. First, the Mgb was converted into a nitrited form by the addition of equimolar amount of sodium (Na) nitrite. In this regard, nitrite is an ambidentate molecule that directly binds 1:1 to myoglobin Fe either via its oxygen or nitrogen component. Cotton et al. Advanced inorganic chemistry. Hobocken, NJ: Wiley-Interscience, 1999:1355; Silaghi-Dumitrescu et al. Nitric Oxide 2014; 42 C: 32-9. […] Rassaf et al. Circ Res 2014; 114:1601-10; Totzeck et al. Circulation 2012; 126:325-34 [J Clin Invest 1992; 89:989-95]; Totzeck et al. PLOS One 2014; 22: e105951; Hendgen-Cotta et al. Proc Natl Acad Sci USA 2008; 105:10256-61.
as §2

haptoglobin [8] = experiment: Liver haptoglobin mRNA and protein after IV N-Mgb, SnPP or both; type: in vivo, mice; parameters: Liver protein: Haptoglobin: unit not given beside the values; settings: for Liver mRNA: Haptoglobin: control 0.5; for Liver protein: Haptoglobin: control 115.3
Description: as §2

HO-1 [9] = experiment: Cardiac HO-1 mRNA and protein after IV N-Mgb, SnPP or both; type: in vivo, mice; settings: for Cardiac mRNA: HO-1: control 0.07
Description: as §2

IL-10 [10] = experiment: Renal cortical IL-10 mRNA and protein after IV N-Mgb, SnPP or both; type: in vivo, mice; settings: for Kidney protein: IL-10: control 304
Excerpt: as §3, §2

haptoglobin [11] = experiment: Renal cortical haptoglobin mRNA and protein after IV N-Mgb, SnPP or both; type: in vivo, mice
Excerpt: as §3, §2

IL-10 [12] = experiment: Cardiac IL-10 mRNA and protein after IV N-Mgb, SnPP or both; type: in vivo, mice; settings: for Cardiac mRNA: IL-10: control 0.36
Description: as §2

IL-10 [13] = experiment: Liver IL-10 mRNA and protein after IV N-Mgb, SnPP or both; type: in vivo, mice; settings: for Liver mRNA: IL-10: control 0.06; for Liver protein: IL-10: control 314
Description: as §2

cyanocobalamin [B12]
HO-1 protein increases (FIG. 21) (HO-1 [1]): marked HO-1 protein increases

iron sucrose [FeS]
Renal cortical HO-1 protein levels (HO-1 [1]; 18 hr time point): remained elevated | HO-1 protein increases (FIG. 21) (HO-1 [1]): marked HO-1 protein increases | Severity of maleate-induced renal injury (BUN, PCr) (Male CD-1 mice [2]): Neither SnPP alone nor FeS alone significantly altered

B1: N-Mgb: horse skeletal muscle myoglobin converted into a nitrited form by addition of equimolar sodium nitrite (protein, UniProt P68082 2-154, looked up)
Myoglobin: GLSDGEWQQVLNVWGKVEADIAGHGQEVLIRLFTGHPETLEKFDKFKHLKTEAEMKASEDLKKHGTVVLTALGGILKKKGHHEAELKPLAQSHATKHKIPIKYLEFISDAIIHVLHSKHPGDFGADAQGAMTKALELFRNDIAAKYKELGFQG
modifications: nitrited with sodium nitrite
Reduction of myoglobin-induced cell death by nitrite binding (HK-2 cells): 75% | Cardiac mRNA: Haptoglobin (haptoglobin [3]; 4 h after Rx): 0.75 ± 0.10 | Cardiac protein: Haptoglobin (haptoglobin [3]; 4 h after Rx): 40.4 ± 8.6 | Cardiac mRNA: Haptoglobin (haptoglobin [3]; 18 h after Rx): 0.53 ± 0.21 | Cardiac protein: Haptoglobin (haptoglobin [3]; 18 h after Rx): 249.6 ± 15.0 | Serum creatinine concentrations [4]: No significant increase | Liver mRNA: HO-1 (HO-1 [5]; 4 h after Rx): 1.83 ± 0.33 | Liver protein: HO-1 protein (HO-1 [5]; 4 h after Rx): 17 ± 2 | Liver mRNA: HO-1 (HO-1 [5]; 18 h after Rx): 0.82 ± 0.07 | Liver protein: HO-1 protein (HO-1 [5]; 18 h after Rx): 14.9 ± 0.3 | Protection against glycerol-induced AKI (BUN/creatinine levels) (Male CD-1 mice [6]): modest protection | Kidney mRNA: HO-1 (HO-1 [7]; 4 h after Rx, control 0.61): 3.38 ± 0.38 | Kidney HO-1 protein (HO-1 [7]; 4 h after Rx, control 13.3): 36.1 ± 2.9 | Kidney mRNA cortex: HO-1 (HO-1 [7]; 18 h after Rx, control 0.61): 0.58 ± 0.18 | Kidney protein: HO-1 (HO-1 [7]; 18 h after Rx, control 13.3): 30 ± 6 | Liver mRNA: Haptoglobin (haptoglobin [8]; 4 h after Rx): 0.98 ± 0.1 | Liver protein: Haptoglobin (haptoglobin [8]; 4 h after Rx): 359.5 ± 39.6 | Liver mRNA: Haptoglobin (haptoglobin [8]; 18 h after Rx): 0.91 ± 0.07 | Liver protein: Haptoglobin (haptoglobin [8]; 18 h after Rx): 358.8 ± 32.8 | Cardiac mRNA: HO-1 (HO-1 [9]; 4 h after Rx): 0.09 ± 0.01 | Cardiac protein: HO-1 (HO-1 [9]; 4 h after Rx, control 1.50): 1.64 ± 0.19 | Cardiac mRNA: HO-1 (HO-1 [9]; 18 h after Rx): 0.08 ± 0.01 | Kidney mRNA: IL-10 (IL-10 [10]; 4 h after Rx, control 0.56): 1.45 ± 0.6 | Kidney protein: IL-10 (IL-10 [10]; 4 h after Rx): 265 ± 54 | Kidney mRNA cortex: IL-10 (IL-10 [10]; 18 h after Rx, control 0.56): 0.43 ± 0.10 | Kidney protein: IL-10 (IL-10 [10]; 18 h after Rx): 292 ± 54 | Kidney mRNA: Haptoglobin (haptoglobin [11]; 4 h after Rx, control 0.20): 1.94 ± 0.31 | Kidney protein: Haptoglobin (haptoglobin [11]; 4 h after Rx, control 7.9): 17.6 ± 1^ | Kidney mRNA cortex: Haptoglobin (haptoglobin [11]; 18 h after Rx, control 0.20): 0.24 ± 0.04 | Kidney protein: Haptoglobin (haptoglobin [11]; 18 h after Rx, control 10.3): 183.8 ± 20.4 | Cardiac mRNA: IL-10 (IL-10 [12]; 4 h after Rx): 0.86 ± 0.11 | Cardiac protein: IL-10 (IL-10 [12]; 4 h after Rx, control 8.1): 21 ± 12 | Cardiac mRNA: IL-10 (IL-10 [12]; 18 h after Rx): 0.67 ± 0.10 | Cardiac protein: IL-10 (IL-10 [12]; 18 h after Rx, control 8): 14.5 ± 10^ | Liver mRNA: IL-10 (IL-10 [13]; 4 h after Rx): 0.67 ± 0.46 | Liver protein: IL-10 (IL-10 [13]; 4 h after Rx): 286 ± 32 | Liver mRNA: IL-10 (IL-10 [13]; 18 h after Rx): 0.06 ± 0.02 | Liver protein: IL-10 (IL-10 [13]; 18 h after Rx): 5988 ± 549
